The values below come from publication PMC4338599 (Science (New York, N.Y.), 2015).

The data set concerns the molecule itself. Description: native MS.

B1: PAXX residues 1-145 (PAXX^1-145) (domain or fragment)
chain: MDPLSPPLCTLPPGPEPPRFVCYCEGEESGEGDRGGFNLYVTDAAELWSTCFTPDSLAALKARFGLSAAEDITPRFRAACEQQAVALTLQEDRASLTLSGGPSALAFDLSKVPGPEAAPRLRALTLGLAKRVWSLERRLAAAEET
In the case of B1, the “stoichiometry N” value was found to be 2.

What is called stoichiometry N is the number of molecules, sites or subunits per partner or assembly.
